B1: CHIT1 (parent)
chain: CSWKGATKQRIQDQKVPYIFRDNQ
B2: ATL3 (parent)
chain: QELEEEIKELYENFCKHNGSKNVF

Variants of: B1
Assay: protein stability index of a GFP-peptide fusion (GPS, HEK-293T) (PSI 1-6); higher = more stable
Conditions: c terminus: a fixed tail appended
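Further: lentivirally expressed fusions sorted by FACS into six bins by GFP to DsRed ratio, PSI derived from sequencing read proportions per bin multiplied by bin number.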

In order of falling protein stability index:
1. CSWKGATKQRIQDQKVPYIFRDNE  4.3
2. CSWKGATKQRIMDQKVPYIFRDNQ  3.82
3. CSWKGATKQRDQDQKVPYIFRDNQ  3.74
4. CSWKGATKQRIQDQKVPYIFEDNQ  3.68
5. CSWKGATKQRIQDQKVPYKFRDNQ  3.67
6. CSWKGATKQAIQDQKVPYIFRDNQ  3.57
7. CSWKGATKQRIQDQKVPDIFRDNQ  3.5
8. CSWKGATKQRIQDAKVPYIFRDNQ  3.46
9. CSWKGASKQRIQDQKVPYIFRDNQ  3.32
10. CSWKGATKQRIQDQKVPYRFRDNQ  3.28
11. CSWKGATEQRIQDQKVPYIFRDNQ  3.19
12. CSWKGATKQRIQDQKVPYIDRDNQ  3.16
13. CSWKGATKQRIQDQKVPYIFPDNQ  3.15
14. CSWKGATKQRIQDQKVPYIFSDNQ  3.12
15. CSWKGATKQRIQDQKKPYIFRDNQ  3.11
16. CSWKGATKQRIQDQKVPYICRDNQ  3.11
17. CSWKGATKQRIQDQDVPYIFRDNQ  3.09
18. CSWKGATKQRIQDQKQPYIFRDNQ  3.07
19. CSHKGATKQRIQDQKVPYIFRDNQ  3.06
20. CSWQGATKQRIQDQKVPYIFRDNQ  3.06
21. CSWKGATKQRIQDHKVPYIFRDNQ  3.06
22. CSWKGATKQRIQDQKVPYIFGDNQ  2.98
23. CSIKGATKQRIQDQKVPYIFRDNQ  2.95
24. CSWKGATKIRIQDQKVPYIFRDNQ  2.92
25. CSWKGATKQRIQMQKVPYIFRDNQ  2.91
26. CSWKGATKQRIQDNKVPYIFRDNQ  2.91
27. CSWKGAQKQRIQDQKVPYIFRDNQ  2.89
28. CSWKGATKQRIQDQKVPYIGRDNQ  2.87
29. PSWKGATKQRIQDQKVPYIFRDNQ  2.86
30. CSWKGNTKQRIQDQKVPYIFRDNQ  2.83
31. CSWKGETKQRIQDQKVPYIFRDNQ  2.79
32. CSWKGATKQRIQDEKVPYIFRDNQ  2.79
33. CSWKGATKQRIQDQKVPYTFRDNQ  2.77
34. CSWRGATKQRIQDQKVPYIFRDNQ  2.75
35. CSWKGATKQRIQDQKVPYIFRDNT  2.75
36. CSWKGATKQRIQDQKVPYIFYDNQ  2.72
37. CSWKGATKQRKQDQKVPYIFRDNQ  2.69
38. CSWKNATKQRIQDQKVPYIFRDNQ  2.69
39. CSWGGATKQRIQDQKVPYIFRDNQ  2.68
40. CSWKGATKQRIQDQKVAYIFRDNQ  2.64
41. CSWKGATKQRIQDQKVPYIFQDNQ  2.64
42. CSWKGATKQMIQDQKVPYIFRDNQ  2.6
43. CSWSGATKQRIQDQKVPYIFRDNQ  2.6
44. CSWMGATKQRIQDQKVPYIFRDNQ  2.6
45. CSWKGATKQRIQDCKVPYIFRDNQ  2.6
46. CSWKHATKQRIQDQKVPYIFRDNQ  2.59
47. CSWKGATKQRIQDQKVPPIFRDNQ  2.58
48. CSWKGATNQRIQDQKVPYIFRDNQ  2.54
49. CNWKGATKQRIQDQKVPYIFRDNQ  2.53
50. CSWKGATKARIQDQKVPYIFRDNQ  2.5
51. CSWKGATKQRIQDQTVPYIFRDNQ  2.48
52. CSWKGATKQRIQDQKVPYIFRDNP  2.48
53. CSWKGATKQRIQDQKVPYIFFDNQ  2.47
54. CSWKGATKQRIQDQKVPYIFRDNN  2.45
55. CSWKGATKVRIQDQKVPYIFRDNQ  2.44
56. CSWKGSTKQRIQDQKVPYIFRDNQ  2.4
57. CSWKGATKQRIQDQKVPYIFHDNQ  2.38
58. CSWKPATKQRIQDQKVPYIFRDNQ  2.38
59. CSWKGATKQRIQDSKVPYIFRDNQ  2.37
60. CSWCGATKQRIQDQKVPYIFRDNQ  2.36
61. CSWKGITKQRIQDQKVPYIFRDNQ  2.32
62. CSWKGATKQRIGDQKVPYIFRDNQ  2.31
63. CSWKGYTKQRIQDQKVPYIFRDNQ  2.31
64. CSWKGATKQRIQDQKVPYIFRDNL  2.31
65. WSWKGATKQRIQDQKVPYIFRDNQ  2.26
66. CSWKGATKQRIQDQHVPYIFRDNQ  2.26
67. CSWKGATKPRIQDQKVPYIFRDNQ  2.25
68. CSWKGATKQRIQDQKVPYIFRPNQ  2.22
69. CSWKGATKQRIQDQLVPYIFRDNQ  2.2
70. CSWKGATKQRIQDQQVPYIFRDNQ  2.19
71. CTWKGATKQRIQDQKVPYIFRDNQ  2.17
72. CSWKGATIQRIQDQKVPYIFRDNQ  2.15
73. CSWKGATKQRIQDQGVPYIFRDNQ  2.15
74. CSWKGFTKQRIQDQKVPYIFRDNQ  2.14
75. CSWWGATKQRIQDQKVPYIFRDNQ  2.12
76. CSWKGATKQRWQDQKVPYIFRDNQ  2.07
77. CSCKGATKQRIQDQKVPYIFRDNQ  2.06
78. CSWKGATKQRIQDQKVPYIFRLNQ  2.06
79. CSWKGATKQRIQDQKVWYIFRDNQ  2.04
80. CSWKGATKQRIIDQKVPYIFRDNQ  2.02
81. CSWKGATKQRIQDQKVPYIFRDNF  2.01
82. CSWKGATKQRIQDQKVPYPFRDNQ  1.87
83. CSWKGATKQRIQKQKVPYIFRDNQ  1.84
84. CSWKGATKQRIQDQKVSYIFRDNQ  1.81
85. CSWKGATKQRIQFQKVPYIFRDNQ  1.8
86. CSWKGATKQRIQDQKVPYIFRDWQ  1.62
87. CSWKGATKQRIQNQKVPYIFRDNQ  1.61
88. CSWKGATKQRIQDQKVPYIFRWNQ  1.6
89. CSWKGATKQRIQIQKVPYIFRDNQ  1.5
90. CSWKGATKQRIQDQKVMYIFRDNQ  1.37
91. CSWKFATKQRIQDQKVPYIFRDNQ  1.37
92. CSWKGATKQRIQDQKVPYIFRDNW  1.3

Variants of: B2
Assay: as above
Conditions: c terminus: a fixed tail appended

In order of rising protein stability index:
1. IELEEEIKELYENFCKHNGSKNVF  1.42
2. QELQEEIKELYENFCKHNGSKNVF  1.56
3. QELEWEIKELYENFCKHNGSKNVF  1.73
4. LELEEEIKELYENFCKHNGSKNVF  1.76
5. QELIEEIKELYENFCKHNGSKNVF  1.79
6. QELEIEIKELYENFCKHNGSKNVF  1.8
7. QELEQEIKELYENFCKHNGSKNVF  1.81
8. QELEYEIKELYENFCKHNGSKNVF  1.9
9. QWLEEEIKELYENFCKHNGSKNVF  1.9
10. QELEAEIKELYENFCKHNGSKNVF  1.96
11. QELAEEIKELYENFCKHNGSKNVF  1.97
12. QELEREIKELYENFCKHNGSKNVF  2.02
13. WELEEEIKELYENFCKHNGSKNVF  2.03
14. VELEEEIKELYENFCKHNGSKNVF  2.08
15. FELEEEIKELYENFCKHNGSKNVF  2.09
16. QELHEEIKELYENFCKHNGSKNVF  2.12
17. QELEEAIKELYENFCKHNGSKNVF  2.13
18. QELMEEIKELYENFCKHNGSKNVF  2.14
19. QELEVEIKELYENFCKHNGSKNVF  2.15
20. QELESEIKELYENFCKHNGSKNVF  2.17
21. QELFEEIKELYENFCKHNGSKNVF  2.2
22. YELEEEIKELYENFCKHNGSKNVF  2.2
23. QELEKEIKELYENFCKHNGSKNVF  2.21
24. QLLEEEIKELYENFCKHNGSKNVF  2.21
25. QEWEEEIKELYENFCKHNGSKNVF  2.21
26. AELEEEIKELYENFCKHNGSKNVF  2.22
27. QELELEIKELYENFCKHNGSKNVF  2.23
28. QELVEEIKELYENFCKHNGSKNVF  2.26
29. QELEFEIKELYENFCKHNGSKNVF  2.27
30. QEVEEEIKELYENFCKHNGSKNVF  2.28
31. QVLEEEIKELYENFCKHNGSKNVF  2.3
32. QELYEEIKELYENFCKHNGSKNVF  2.31
33. KELEEEIKELYENFCKHNGSKNVF  2.31
34. RELEEEIKELYENFCKHNGSKNVF  2.31
35. QELECEIKELYENFCKHNGSKNVF  2.33
36. QILEEEIKELYENFCKHNGSKNVF  2.36
37. QALEEEIKELYENFCKHNGSKNVF  2.38
38. QELWEEIKELYENFCKHNGSKNVF  2.39
39. QELEHEIKELYENFCKHNGSKNVF  2.42
40. QENEEEIKELYENFCKHNGSKNVF  2.42
41. QELETEIKELYENFCKHNGSKNVF  2.45
42. MELEEEIKELYENFCKHNGSKNVF  2.46
43. QELLEEIKELYENFCKHNGSKNVF  2.47
44. QYLEEEIKELYENFCKHNGSKNVF  2.47
45. QELENEIKELYENFCKHNGSKNVF  2.51
46. QQLEEEIKELYENFCKHNGSKNVF  2.52
47. QMLEEEIKELYENFCKHNGSKNVF  2.54
48. QFLEEEIKELYENFCKHNGSKNVF  2.57
49. QHLEEEIKELYENFCKHNGSKNVF  2.62
50. QCLEEEIKELYENFCKHNGSKNVF  2.65
51. QELREEIKELYENFCKHNGSKNVF  2.66
52. CELEEEIKELYENFCKHNGSKNVF  2.69
53. QELKEEIKELYENFCKHNGSKNVF  2.8
54. QRLEEEIKELYENFCKHNGSKNVF  2.8
55. QELEMEIKELYENFCKHNGSKNVF  2.81
56. QELCEEIKELYENFCKHNGSKNVF  2.81
57. PELEEEIKELYENFCKHNGSKNVF  2.83
58. QEYEEEIKELYENFCKHNGSKNVF  2.85
59. QSLEEEIKELYENFCKHNGSKNVF  2.97
60. QELSEEIKELYENFCKHNGSKNVF  3.01
61. QEMEEEIKELYENFCKHNGSKNVF  3.02
62. QDLEEEIKELYENFCKHNGSKNVF  3.03
63. DELEEEIKELYENFCKHNGSKNVF  3.13
64. QGLEEEIKELYENFCKHNGSKNVF  3.14
65. QEIEEEIKELYENFCKHNGSKNVF  3.14
66. HELEEEIKELYENFCKHNGSKNVF  3.17
67. TELEEEIKELYENFCKHNGSKNVF  3.19
68. QELGEEIKELYENFCKHNGSKNVF  3.2
69. QELEGEIKELYENFCKHNGSKNVF  3.25
70. QELEDEIKELYENFCKHNGSKNVF  3.27
71. QKLEEEIKELYENFCKHNGSKNVF  3.3
72. GELEEEIKELYENFCKHNGSKNVF  3.31
73. QELTEEIKELYENFCKHNGSKNVF  3.34
74. NELEEEIKELYENFCKHNGSKNVF  3.39
75. SELEEEIKELYENFCKHNGSKNVF  3.41
76. QTLEEEIKELYENFCKHNGSKNVF  3.43
77. QELPEEIKELYENFCKHNGSKNVF  3.51
78. QEFEEEIKELYENFCKHNGSKNVF  3.54
79. QELDEEIKELYENFCKHNGSKNVF  3.62
80. QNLEEEIKELYENFCKHNGSKNVF  3.65
81. EELEEEIKELYENFCKHNGSKNVF  3.67
82. QPLEEEIKELYENFCKHNGSKNVF  3.68
83. QECEEEIKELYENFCKHNGSKNVF  3.71
84. QETEEEIKELYENFCKHNGSKNVF  3.83
85. QELEPEIKELYENFCKHNGSKNVF  3.85
86. QEPEEEIKELYENFCKHNGSKNVF  3.9
87. QELNEEIKELYENFCKHNGSKNVF  3.96
88. QEHEEEIKELYENFCKHNGSKNVF  4
89. QEQEEEIKELYENFCKHNGSKNVF  4.01
90. QEAEEEIKELYENFCKHNGSKNVF  4.15
91. QEEEEEIKELYENFCKHNGSKNVF  4.29
92. QEDEEEIKELYENFCKHNGSKNVF  4.33
93. QEREEEIKELYENFCKHNGSKNVF  4.33
94. QEGEEEIKELYENFCKHNGSKNVF  4.49
95. QEKEEEIKELYENFCKHNGSKNVF  4.55
96. QESEEEIKELYENFCKHNGSKNVF  4.62

Source: the supplement of paper PMC10567573
